Among the data in US20140105889A1 (published 2014) are relative binding activity values, retold here.

The labels stand for the following.
T1: human FcγRIIb (human, UniProt P31994 43-217, limits assumed)
T1 construct: also called FcgRIIb; FcγIIB
T1 sequence: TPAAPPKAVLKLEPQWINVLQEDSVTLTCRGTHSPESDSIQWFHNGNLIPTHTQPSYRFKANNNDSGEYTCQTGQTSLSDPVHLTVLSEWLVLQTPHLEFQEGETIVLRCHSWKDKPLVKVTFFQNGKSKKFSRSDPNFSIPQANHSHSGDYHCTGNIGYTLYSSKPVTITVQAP

T2: human FcγRIIa type H (human, UniProt P12318 36-217)
T2 construct: also called FcgRIIaH; FcγRIIa(H)
T2 sequence: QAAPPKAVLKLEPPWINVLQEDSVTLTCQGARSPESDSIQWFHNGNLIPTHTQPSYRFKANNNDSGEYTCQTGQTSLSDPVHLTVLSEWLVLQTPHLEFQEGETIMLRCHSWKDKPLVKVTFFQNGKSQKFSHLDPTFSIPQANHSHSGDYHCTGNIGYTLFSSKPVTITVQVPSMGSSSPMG

B1: IL6R-BP213/IL6R-L (antibody, human IgG1)
heavy: QVQLQESGPGLVKPSETLSLTCAVSGHSISHDHAWSWVRQPPGEGLEWIGFISYSGITNYNPSLQGRVTISRDNSKNTLYLQMNSLRAEDTAVYYCARSLARTTAMDYWGEGTLVTVSSASTKGPSVFPLAPSSKSTSGGTAALGCLVKDYFPEPVTVSWNSGALTSGVHTFPAVLQSSGLYSLSSVVTVPSSSLGTQTYICNVNHKPSNTKVDKKVEPKSCDKTHTCPPCPAPDLLGGDSVFLFPPKPKDTLMISRTPEVTCVVVDVSDEDGEVKFNWYVDGVEVHNAKTKPREEQYNSTYRVVSVLTVLHQDWLNGKEYKCKVSNKALPRPIEKTISKAKGQPREPQVYTLPPSRDELTKNQVSLTCLVKGFYPSDIAVEWESNGQPENNYKTTPPVLDSDGSFFLYSKLTVDKSRWQQGNVFSCSVMHEALHNHYTQESLSLSP
light: DIQMTQSPSSLSASVGDRVTITCRASQDISSYLNWYQQKPGKAPKLLIYYTSRLHSGVPSRFSGSGSGTDFTFTISSLQPEDIATYYCQQGNTLPYTFGQGTKVEIK
notes: The common L chain is IL6R-L; copies: 2 + 2
B2: IL6R-BP194/IL6R-L (antibody, human IgG1)
heavy: B1 heavy with L236Y, G239D, K328A, R332K
light: B1 light
notes: as for B1
B3: IL6R-BP211/IL6R-L (antibody, human IgG1)
heavy: B1 heavy with K328A
light: B1 light
notes: as for B1
B4: IL6R-BP196/IL6R-L (antibody, human IgG1)
heavy: B1 heavy with D235E, L236Y, K328A, R332K
light: B1 light
notes: as for B1
B5: IL6R-BP187/IL6R-L (antibody, human IgG1)
heavy: B1 heavy with D235E, L236Y, D270H, K328A, R332K
light: B1 light
notes: as for B1
B6: IL6R-BP189/IL6R-L (antibody, human IgG1)
heavy: B1 heavy with D235E, G239D, K328A, R332K
light: B1 light
notes: as for B1
B7: IL6R-BP191/IL6R-L (antibody, human IgG1)
heavy: B1 heavy with K328A, R332K
light: B1 light
notes: as for B1
B8: IL6R-BP195/IL6R-L (antibody, human IgG1)
heavy: B1 heavy with L236Y, G239D, Y298D, K328A, R332K
light: B1 light
notes: as for B1
B9: IL6R-BP192/IL6R-L (antibody, human IgG1)
heavy: B1 heavy with Y298D, R332K
light: B1 light
notes: as for B1

Changes are numbered by the printed parent chain.

T4 sequence (P08637 other isoform, or with tags, fused parts or gaps limits assumed): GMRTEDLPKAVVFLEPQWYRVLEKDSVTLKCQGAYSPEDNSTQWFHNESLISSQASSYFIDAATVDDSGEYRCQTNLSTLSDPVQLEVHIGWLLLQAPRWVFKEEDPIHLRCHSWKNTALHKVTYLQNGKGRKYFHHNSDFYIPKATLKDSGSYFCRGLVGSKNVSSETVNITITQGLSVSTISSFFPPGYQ

The target in one experiment is T3, human FcγRIa (human, UniProt P12314 16-292, limits assumed).
T3 construct: also called FcgRIa; CD64
T3 sequence (P12314 16-292 limits assumed): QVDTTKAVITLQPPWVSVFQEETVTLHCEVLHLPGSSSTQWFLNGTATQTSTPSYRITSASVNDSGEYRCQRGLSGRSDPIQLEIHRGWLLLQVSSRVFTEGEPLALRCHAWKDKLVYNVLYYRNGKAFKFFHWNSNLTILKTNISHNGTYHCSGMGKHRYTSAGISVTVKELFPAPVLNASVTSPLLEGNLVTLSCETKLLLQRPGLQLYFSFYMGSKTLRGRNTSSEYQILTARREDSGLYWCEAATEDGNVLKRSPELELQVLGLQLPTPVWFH
Nature of the experiment: SPR (Biacore); binding amount divided by that of control IL6R-BF648/IL6R-L, x100. Background: Surface plasmon resonance follows binding to a sensor surface in real time, without labels.
Protocol: (§1) According to the following method, relative binding activities were calculated for the results of analyzing interactions with the respective FcγRs.
For B1, the relative binding activity is 118 % of IL6R-BF648/IL6R-L.
Regarding B2, the relative binding activity is 69 % of IL6R-BF648/IL6R-L.
Regarding B3, the relative binding activity was 128 % of IL6R-BF648/IL6R-L.
Consider B4, for which the relative binding activity is 89 % of IL6R-BF648/IL6R-L.
Consider B5, for which the relative binding activity is 68 % of IL6R-BF648/IL6R-L.
Take B6: the relative binding activity is 56 % of IL6R-BF648/IL6R-L.
For B7, the relative binding activity was 125 % of IL6R-BF648/IL6R-L.
As for B8, the relative binding activity was 68 % of IL6R-BF648/IL6R-L.
The same measure, in the same setting: the same measure for B9: 109 % of IL6R-BF648/IL6R-L.

The next experiment concerns the target T1, human FcγRIIb. Described as above.
Protocol: as §1
Consider B1, for which the relative binding activity was 169 % of IL6R-BF648/IL6R-L.
The same measure, in the same setting: as for B2, the figure is 178 % of IL6R-BF648/IL6R-L; as for B3, 165 % of IL6R-BF648/IL6R-L; as for B4, 157 % of IL6R-BF648/IL6R-L.
Turning to B5, the relative binding activity was 157 % of IL6R-BF648/IL6R-L.
Take B6: the relative binding activity was 177 % of IL6R-BF648/IL6R-L.
Regarding B9, the relative binding activity was 172 % of IL6R-BF648/IL6R-L.

Another experiment concerns the target T4, human FcγRIIIa type V (human, UniProt P08637 17-208, limits assumed).
T4 construct: The assay used allotype V158; also called FcgRIIIaV; FcγRIIIa(V)
The description is as above.
Protocol: as §1
As to B1, the relative binding activity was 100 % of IL6R-BF648/IL6R-L.
For B2, the relative binding activity is 249 % of IL6R-BF648/IL6R-L.
With B3, the relative binding activity was 87 % of IL6R-BF648/IL6R-L.
Consider B4, for which the relative binding activity is 137 % of IL6R-BF648/IL6R-L.
On the same count and under the same terms, as for B5, the figure is 124 % of IL6R-BF648/IL6R-L; as for B6, 141 % of IL6R-BF648/IL6R-L; as for B7, 142 % of IL6R-BF648/IL6R-L.
Same read-out and setting: as for B8, the figure is 221 % of IL6R-BF648/IL6R-L.
On the same count and under the same terms, the same measure for B9: 118 % of IL6R-BF648/IL6R-L.

The next experiment concerns the target T2, human FcγRIIa type H. Described as above.
Protocol: as §1
Turning to B1, the relative binding activity was 123 % of IL6R-BF648/IL6R-L.
For the molecule B2, the relative binding activity is 395 % of IL6R-BF648/IL6R-L.
Regarding B4, the relative binding activity is 195 % of IL6R-BF648/IL6R-L.
Regarding B5, the relative binding activity was 205 % of IL6R-BF648/IL6R-L.
Consider B6, for which the relative binding activity was 183 % of IL6R-BF648/IL6R-L.
On the same count and under the same terms, the same measure for B7: 145 % of IL6R-BF648/IL6R-L; for B8: 344 % of IL6R-BF648/IL6R-L; for B9: 122 % of IL6R-BF648/IL6R-L.
